# Experimental data: IntAct's records for PubMed 25402481
# B1: ADP-ribosylation factor-like protein 6 (Homo sapiens), Q9H0F7-1 (parent)
# chain: MGLLDRLSVLLGLKKKEVHVLCLGLDNSGKTTIINKLKPSNAQSQNILPTIGFSIEKFKSSSLSFTVFDMSGQGRYRNLWEHYYKEGQAIIFVIDSSDRLRMVVAKEELDTLLNHPDIKHRRIPILFFANKMDLRDAVTSVKVSQLLCLENIKDKPWHICASDAIKGEGLQEGVDWLQDQIQTVKT
# partner: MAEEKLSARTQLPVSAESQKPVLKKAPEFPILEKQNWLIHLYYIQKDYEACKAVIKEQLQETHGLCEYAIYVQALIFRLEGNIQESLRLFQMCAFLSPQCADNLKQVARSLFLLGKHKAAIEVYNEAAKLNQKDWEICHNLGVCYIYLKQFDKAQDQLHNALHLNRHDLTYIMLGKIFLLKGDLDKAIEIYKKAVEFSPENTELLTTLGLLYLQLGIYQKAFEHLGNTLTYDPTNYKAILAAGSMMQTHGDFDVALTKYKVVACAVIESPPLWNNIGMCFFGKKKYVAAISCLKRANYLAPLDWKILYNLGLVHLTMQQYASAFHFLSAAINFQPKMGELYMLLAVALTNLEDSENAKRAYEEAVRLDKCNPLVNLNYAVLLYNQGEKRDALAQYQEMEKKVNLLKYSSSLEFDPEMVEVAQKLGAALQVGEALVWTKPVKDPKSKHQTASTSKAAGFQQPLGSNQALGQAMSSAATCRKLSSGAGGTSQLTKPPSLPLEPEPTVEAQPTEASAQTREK
# B2: BBSome complex member BBS1 (Homo sapiens), Q8NFJ9 (parent)
# chain: MAAASSSDSDACGAESNEANSKWLDAHYDPMANIHTFSACLALADLHGDGEYKLVVGDLGPGGQQPRLKVLKGPLVMTESPLPALPAAAATFLMEQHEPRTPALALASGPCVYVYKNLRPYFKFSLPQLPPNPLEQDLWNQAKEDRIDPLTLKEMLESIRETAEEPLSIQSLRFLQLELSEMEAFVNQHKSNSIKRQTVITTMTTLKKNLADEDAVSCLVLGTENKELLVLDPEAFTILAKMSLPSVPVFLEVSGQFDVEFRLAAACRNGNIYILRRDSKHPKYCIELSAQPVGLIRVHKVLVVGSTQDSLHGFTHKGKKLWTVQMPAAILTMNLLEQHSRGLQAVMAGLANGEVRIYRDKALLNVIHTPDAVTSLCFGRYGREDNTLIMTTRGGGLIIKILKRTAVFVEGGSEVGPPPAQAMKLNVPRKTRLYVDQTLREREAGTAMHRAFQTDLYLLRLRAARAYLQALESSLSPLSTTAREPLKLHAVVQGLGPTFKLTLHLQNTSTTRPVLGLLVCFLYNEALYSLPRAFFKVPLLVPGLNYPLETFVESLSNKGISDIIKVLVLREGQSAPLLSAHVNMPGSEGLAAA
# partner: B1 chain
# Variants of: B1
# Conditions: with bbs4_bovin BBS4, Q1JQ97
row,Variant,effect of a mutation on the interaction
1,MGLLDRLSVLLGLKKKEVHVLCLGLDNSGKTTIINKLKPSNAQSQNILPTIGFSIEKFKSSSLSFTVFDMSGQGRYRNLWEHYYKEGQAIIFVIDSSDRERMVVAKEELDTLLNHPDIKHRRIPILFFANKMDLRDAVTSVKVSQLLCLENIKDKPWHICASDAIKGEGLQEGVDWLQDQIQTVKT [L100E],disrupting interaction strength
2,MGLLDRLSVLLGLKKKEVHVLCLGLDNSGKTTIINKLKPSNAQSQNILPTIGFSIEKFKSSSLSFTVFDMSGQGRYANLWEHYYKEGQAIIFVIDSSDRLRMVVAKEELDTLLNHPDIKHRRIPILFFANKMDLRDAVTSVKVSQLLCLENIKDKPWHICASDAIKGEGLQEGVDWLQDQIQTVKT [R77A],disrupting interaction strength
3,MGLLDRLSVLLGLKKKEVHVLCLGLDNSGKTTIINKLKPSNAQSQNILPTIGFSIEKFKSSSLSFTVFDMSGQGRYRNLWEHYYKEGQAIIFVIDSSDRLRMVVAKEALDTLLNHPDIKHRRIPILFFANKMDLRDAVTSVKVSQLLCLENIKDKPWHICASDAIKGEGLQEGVDWLQDQIQTVKT [E108A],disrupting interaction strength

# Variants of: B2
# Conditions: with ARL6, Q9H0F7-1
row,Variant,effect of a mutation on the interaction
1,MAAASSSDSDACGAESNEANSKWLDAHYDPMANIHTFSACLALADLHGDGEYKLVVGDLGPGGQQPRLKVLKGPLVMTESPLPALPAAAATFLMEQHEPRTPALALASGPCVYVYKNLRPYFKFSLPQLPPNPLEQDLWNQAKEDRIDPLTLKEMLESIRETAEEPLSIQSLRFLQLELSEMEAFVNQHKSNSIKRQTVITTMTTLKKNLADEDAVSCLVLGTENKELLVLDPEAFTILAKMSLPSVPVFLEVSGQFDVEFRLAAACRNGNIYILRRDSKHPKYCIELSAQPVGLIRVHKVLVVGSTQDSLHGFTHKGKKLWTVQMPAAILTMNLLEQHSRGLQAVMAGLANGEVRIYRDKALLNVIHTPDAVTSLCFGRYGREDNTLIMTTRGGGLIIKILKATAVFVEGGSEVGPPPAQAMKLNVPRKTRLYVDQTLREREAGTAMHRAFQTDLYLLRLRAARAYLQALESSLSPLSTTAREPLKLHAVVQGLGPTFKLTLHLQNTSTTRPVLGLLVCFLYNEALYSLPRAFFKVPLLVPGLNYPLETFVESLSNKGISDIIKVLVLREGQSAPLLSAHVNMPGSEGLAAA [R404A],disrupting interaction strength
2,MAAASSSDSDACGAESNEANSKWLDAHYDPMANIHTFSACLALADLHGDGEYKLVVGDLGPGGQQPRLKVLKGPLVMTESPLPALPAAAATFLMEQHEPRTPALALASGPCVYVYKNLRPYFKFSLPQLPPNPLEQDLWNQAKEDRIDPLTLKEMLESIRETAEEPLSIQSLRFLQLELSEMEAFVNQHKSNSIKRQTVITTMTTLKKNLADEDAVSCLVLGTENKELLVLDPEAFTILAKMSLPSVPVFLEVSGQFDVEFRLAAACRNGNIYILRRDSKHPKYCIELSAQPVGLIRVHKVLVVGSTQDSLHGFTHKGKKLWTVQMPAAILTMNLLEQHSRGLQAVMAGLANGEVRIYRDKALLNVIHTPDAVTSLCFGRYGREDNTLIMTTRGGGLIEKILKRTAVFVEGGSEVGPPPAQAMKLNVPRKTRLYVDQTLREREAGTAMHRAFQTDLYLLRLRAARAYLQALESSLSPLSTTAREPLKLHAVVQGLGPTFKLTLHLQNTSTTRPVLGLLVCFLYNEALYSLPRAFFKVPLLVPGLNYPLETFVESLSNKGISDIIKVLVLREGQSAPLLSAHVNMPGSEGLAAA [I399E],disrupting interaction strength

# Variants of: B2
# Conditions: with ARL6, Q9H0F7-1
# Remark: another data set of the same source
row,Variant,effect of a mutation on the interaction
1,MAAASSSDSDACGAESNEANSKWLDAHYDPMANIHTFSACLALADLHGDGEYKLVVGDLGPGGQQPRLKVLKGPLVMTESPLPALPAAAATFLMEQHEPRTPALALASGPCVYVYKNLRPYFKFSLPQLPPNPLEQDLWNQAKEDRIDPLTLKEMLESIRETAEEPLSIQSLRFLQLELSEMEAFVNQHKSNSIKRQTVITTMTTLKKNLADEDAVSCLVLGTENKELLVLDPEAFTILAKMSLPSVPVFLEVSGQFDVEFRLAAACRNGNIYILRRDSKHPKYCIELSAQPVGLIRVHKVLVVGSTQDSLHGFTHKGKKLWTVQMPAAILTMNLLEQHSRGLQAVMAGLANGEVRIYRDKALLNVIHTPDAVTSLCFGRYGREDNTLIRTTRGGGLIIKILKRTAVFVEGGSEVGPPPAQAMKLNVPRKTRLYVDQTLREREAGTAMHRAFQTDLYLLRLRAARAYLQALESSLSPLSTTAREPLKLHAVVQGLGPTFKLTLHLQNTSTTRPVLGLLVCFLYNEALYSLPRAFFKVPLLVPGLNYPLETFVESLSNKGISDIIKVLVLREGQSAPLLSAHVNMPGSEGLAAA [M390R],disrupting interaction strength
